Results: the Immune Epitope Database (IEDB)
pIC50, pKd: −log10 of the molar value. Values belong to the sequence of their own block, whether it stands above or below them.

How the values were obtained:
HLA-A*24:03 = experiment: IEDB peptide-MHC binding, purified MHC/direct/fluorescence; filed as Kd, often an IC50 or EC50 that approximates it; ≥ and ≤ were set here for values at or beyond the usual limits of such assays
HLA-A*24:02 = experiment: IEDB peptide-MHC binding, purified MHC/competitive/fluorescence; ≥ and ≤ were set here for values at or beyond the usual limits of such assays
HLA-A*30:02 = experiment: IEDB peptide-MHC binding, purified MHC/competitive/radioactivity; filed as Kd, often an IC50 or EC50 that approximates it; ≥ and ≤ were set here for values at or beyond the usual limits of such assays
HLA-A*03:01 [1] = experiment: as above
HLA-B*15:01 [2] = experiment: as above
HLA-A*30:01 = experiment: as above; conditions: source organism: Dengue virus 4 Philippines/H241/1956
HLA-A*02:01 [3] = experiment: IEDB peptide-MHC binding, purified MHC/competitive/fluorescence; ≥ and ≤ were set here for values at or beyond the usual limits of such assays
HLA-A*26:01 [4] = experiment: IEDB peptide-MHC binding, purified MHC/competitive/radioactivity; filed as Kd, often an IC50 or EC50 that approximates it; ≥ and ≤ were set here for values at or beyond the usual limits of such assays
HLA-A*01:01 [5] = experiment: as above
HLA-B*07:02 = experiment: IEDB peptide-MHC binding, purified MHC/direct/fluorescence; filed as Kd, often an IC50 or EC50 that approximates it; ≥ and ≤ were set here for values at or beyond the usual limits of such assays
HLA-B*51:01 [6] = experiment: IEDB peptide-MHC binding, purified MHC/competitive/fluorescence; filed as Kd, often an IC50 or EC50 that approximates it; ≥ and ≤ were set here for values at or beyond the usual limits of such assays; conditions: source organism: Kurkino virus
HLA-B*51:01 [7] = experiment: IEDB peptide-MHC binding, purified MHC/competitive/radioactivity; filed as Kd, often an IC50 or EC50 that approximates it; ≥ and ≤ were set here for values at or beyond the usual limits of such assays
HLA-B*53:01 = experiment: as above
HLA-B*08:01 = experiment: IEDB peptide-MHC binding, purified MHC/direct/fluorescence; filed as Kd, often an IC50 or EC50 that approximates it; ≥ and ≤ were set here for values at or beyond the usual limits of such assays
HLA-A*32:01 = experiment: IEDB peptide-MHC binding, purified MHC/competitive/radioactivity; filed as Kd, often an IC50 or EC50 that approximates it; ≥ and ≤ were set here for values at or beyond the usual limits of such assays; conditions: source organism: Vaccinia virus Copenhagen
HLA-A*31:01 = experiment: IEDB peptide-MHC binding, purified MHC/direct/fluorescence; filed as Kd, often an IC50 or EC50 that approximates it; ≥ and ≤ were set here for values at or beyond the usual limits of such assays; conditions: source organism: Salmonella enterica subsp. enterica serovar Typhi
HLA-B*27:05 = experiment: as above; conditions: source organism: Salmonella enterica subsp. enterica serovar Typhi
HLA-A*26:01 [8] = experiment: as above; conditions: source organism: Salmonella enterica subsp. enterica serovar Typhi
HLA-B*58:01 = experiment: as above; conditions: source organism: Salmonella enterica subsp. enterica serovar Typhi
HLA-A*69:01 = experiment: as above; conditions: source organism: Salmonella enterica subsp. enterica serovar Typhi
HLA-B*44:02 = experiment: as above; conditions: source organism: Salmonella enterica subsp. enterica serovar Typhi
HLA-B*40:01 = experiment: as above
HLA-A*01:01 [9] = experiment: as above; conditions: source organism: Salmonella enterica subsp. enterica serovar Typhi
HLA-A*03:01 [10] = experiment: as above; conditions: source organism: Salmonella enterica subsp. enterica serovar Typhi
HLA-B*15:01 [11] = experiment: as above; conditions: source organism: Salmonella enterica subsp. enterica serovar Typhi
HLA-A*02:01 [12] = experiment: as above; conditions: source organism: Salmonella enterica subsp. enterica serovar Typhi
HLA-A*11:01 [13] = experiment: as above; conditions: source organism: Salmonella enterica subsp. enterica serovar Typhi
HLA-A*11:01 [14] = experiment: IEDB peptide-MHC binding, purified MHC/competitive/radioactivity; filed as Kd, often an IC50 or EC50 that approximates it; ≥ and ≤ were set here for values at or beyond the usual limits of such assays; conditions: source organism: Dengue virus 2 Jamaica/1409/1983
HLA-B*18:01 = experiment: IEDB peptide-MHC binding, purified MHC/direct/fluorescence; filed as Kd, often an IC50 or EC50 that approximates it; ≥ and ≤ were set here for values at or beyond the usual limits of such assays; conditions: source organism: Giardia lamblia ATCC 50803
[15] = source organism: Dengue virus 4 Philippines/H241/1956
[16] = source organism: Sudan ebolavirus
[17] = source organism: Dengue virus 3 Sri Lanka/1266/2000
[18] = source organism: Vaccinia virus WR
[19] = source organism: Dengue virus 2 Jamaica/1409/1983
[20] = source organism: Dengue virus 3 Martinique/1243/1999
[21] = source organism: Salmonella enterica subsp. enterica serovar Typhi
[22] = source organism: Dengue virus 2 Peru/IQT2913/1996
[23] = source organism: Zaire ebolavirus

Sequence: IYTLEYDGF
pKd (HLA-A*24:03; source organism: Mycobacterium tuberculosis): 7.13

Sequence: KGRVGRVNP
pIC50 (HLA-A*24:02; source organism: Variola virus): 5.01

Sequence: KLRIKGMSY
pKd (HLA-A*30:02; [15]): 7.10
pKd (HLA-A*03:01 [1]; [15]): 8.08
pKd (HLA-B*15:01 [2]; [15]): 7.41
pKd (HLA-A*30:01): 7.73

Sequence: KQITNELNY
pKd (HLA-A*30:02; [15]): 8.00
pKd (HLA-B*15:01 [2]; [15]): 8.12

Sequence: KSSFFVWVI
pIC50 (HLA-A*24:02; [16]): 7.16
pIC50 (HLA-A*02:01 [3]; [16]): 6.56

Sequence: LLIVSGIFPY
pKd (HLA-A*26:01 [4]; [17]): 4.95
pKd (HLA-A*30:02; [17]): ≤ 4.22
pKd (HLA-A*01:01 [5]; [17]): 5.12
pKd (HLA-B*15:01 [2]; [17]): 8.65

Sequence: LMTGTLAVF
pKd (HLA-B*15:01 [2]; source organism: Dengue virus 1 Brazil/97-11/1997): 9.40

Sequence: LPTRCRLEI
pKd (HLA-B*07:02; source organism: Orthohantavirus dobravaense): 8.41
pKd (HLA-B*51:01 [6]): ≤ 4.70

Sequence: LPTYLSSRA
pKd (HLA-B*51:01 [7]; [15]): ≤ 4.63

Sequence: MLNTYGEGF
pKd (HLA-B*15:01 [2]; [18]): 8.65

Sequence: MPSVIEKMET
pKd (HLA-B*53:01; [19]): 5.79
pKd (HLA-B*51:01 [7]; [19]): 5.02

Sequence: MSRRRIYVL
pKd (HLA-B*08:01; source organism: Cowpox virus): 8.22

Sequence: MVYKLVLLF
pKd (HLA-A*32:01): 6.48
pKd (HLA-B*15:01 [2]; source organism: Vaccinia virus Copenhagen): 7.15

pKd (HLA-A*24:03; source organism: Rhodococcus erythropolis): 9.22
Sequence: MYLRTIYDL

Sequence: NAVILQNAW
pKd (HLA-B*53:01; [19]): 7.09

Sequence: NPTAIFLTT
pKd (HLA-B*53:01; [19]): 5.77

Sequence: NPTVDGIMTI
pKd (HLA-B*53:01; [20]): 6.67

Sequence: PPFGDSYIV
pKd (HLA-B*51:01 [7]; [15]): ≤ 4.64

Sequence: PPVSDLKYSW
pKd (HLA-B*53:01; source organism: Dengue virus 4 Dominica/814669/1981): 5.80

Sequence: PYFGPGAEG
pIC50 (HLA-A*24:02; [16]): ≤ 3.94

Sequence: QHSTTLFKI
pIC50 (HLA-A*24:02; [16]): 5.67
pIC50 (HLA-A*02:01 [3]; [16]): ≤ 4.10

Sequence: REILFHNTM
pKd (HLA-A*31:01): ≤ 4.70
pKd (HLA-B*27:05): ≤ 4.70
pKd (HLA-A*26:01 [8]): ≤ 4.70
pKd (HLA-B*58:01): ≤ 4.70
pKd (HLA-A*69:01): ≤ 4.70
pKd (HLA-B*44:02): ≤ 4.70
pKd (HLA-B*07:02; [21]): ≤ 4.70
pKd (HLA-B*40:01; [21]): 8.25
pKd (HLA-A*01:01 [9]): ≤ 4.70
pKd (HLA-A*03:01 [10]): ≤ 4.70
pKd (HLA-B*08:01; [21]): 5.88
pKd (HLA-B*15:01 [11]): 6.74
pKd (HLA-A*02:01 [12]): ≤ 4.70
pKd (HLA-A*11:01 [13]): ≤ 4.70

Sequence: RIKQKGILGY
pKd (HLA-A*30:02; [22]): 5.84
pKd (HLA-B*15:01 [2]; [22]): 6.82

Sequence: RWGGTCHIL
pIC50 (HLA-A*24:02; [23]): 7.25

Sequence: RYPAIAGGI
pKd (HLA-A*24:03; source organism: Burkholderia mallei): 8.48

Sequence: SFLLMLCLH
pIC50 (HLA-A*24:02; [23]): ≤ 3.57

Sequence: SQHNYRQGY
pKd (HLA-A*30:02; [15]): 7.63
pKd (HLA-B*15:01 [2]; [15]): 8.46

Sequence: TIMAAILAY
pKd (HLA-A*26:01 [4]; [19]): 6.81
pKd (HLA-A*30:02; [19]): 6.93
pKd (HLA-A*01:01 [5]; [19]): ≤ 4.58
pKd (HLA-A*03:01 [1]; [19]): 7.54
pKd (HLA-B*15:01 [2]; [19]): 7.13
pKd (HLA-A*11:01 [14]): 6.79

Sequence: TLITGNMSF
pKd (HLA-B*15:01 [2]; [19]): 7.04

Sequence: TYVQLESRF
pIC50 (HLA-A*24:02; [23]): 4.25

Sequence: VFLPNPAFI
pIC50 (HLA-A*24:02; source organism: Variola virus): 4.73
pIC50 (HLA-A*02:01 [3]; source organism: Variola virus): 6.15

Sequence: VSKKEGGAMY
pKd (HLA-A*30:02; [19]): ≤ 4.16
pKd (HLA-A*01:01 [5]; [19]): 4.70
pKd (HLA-B*15:01 [2]; [19]): 7.07

Sequence: VTRGAVLTY
pKd (HLA-A*30:02; [20]): ≤ 4.11
pKd (HLA-A*01:01 [5]; [20]): 5.51
pKd (HLA-B*15:01 [2]; [20]): 7.52

Sequence: WEPPERHIL
pKd (HLA-B*18:01): ≥ 9.00
pKd (HLA-B*40:01; source organism: Giardia lamblia ATCC 50803): ≤ 4.70

Sequence: YACKQILHG
pKd (HLA-B*15:01 [2]; [18]): 5.64

Sequence: YMATTILEM
pKd (HLA-B*15:01 [2]; [18]): 8.66
